Measurements taken from PMC10786891, “Massively parallel profiling of RNA-targeting CRISPR-Cas13d”.

T1: EsCas13d, nuclease-dead (Eubacterium siraeum, UniProt B0MS50, R295A;H300A;R849A;H854A)
T1 sequence: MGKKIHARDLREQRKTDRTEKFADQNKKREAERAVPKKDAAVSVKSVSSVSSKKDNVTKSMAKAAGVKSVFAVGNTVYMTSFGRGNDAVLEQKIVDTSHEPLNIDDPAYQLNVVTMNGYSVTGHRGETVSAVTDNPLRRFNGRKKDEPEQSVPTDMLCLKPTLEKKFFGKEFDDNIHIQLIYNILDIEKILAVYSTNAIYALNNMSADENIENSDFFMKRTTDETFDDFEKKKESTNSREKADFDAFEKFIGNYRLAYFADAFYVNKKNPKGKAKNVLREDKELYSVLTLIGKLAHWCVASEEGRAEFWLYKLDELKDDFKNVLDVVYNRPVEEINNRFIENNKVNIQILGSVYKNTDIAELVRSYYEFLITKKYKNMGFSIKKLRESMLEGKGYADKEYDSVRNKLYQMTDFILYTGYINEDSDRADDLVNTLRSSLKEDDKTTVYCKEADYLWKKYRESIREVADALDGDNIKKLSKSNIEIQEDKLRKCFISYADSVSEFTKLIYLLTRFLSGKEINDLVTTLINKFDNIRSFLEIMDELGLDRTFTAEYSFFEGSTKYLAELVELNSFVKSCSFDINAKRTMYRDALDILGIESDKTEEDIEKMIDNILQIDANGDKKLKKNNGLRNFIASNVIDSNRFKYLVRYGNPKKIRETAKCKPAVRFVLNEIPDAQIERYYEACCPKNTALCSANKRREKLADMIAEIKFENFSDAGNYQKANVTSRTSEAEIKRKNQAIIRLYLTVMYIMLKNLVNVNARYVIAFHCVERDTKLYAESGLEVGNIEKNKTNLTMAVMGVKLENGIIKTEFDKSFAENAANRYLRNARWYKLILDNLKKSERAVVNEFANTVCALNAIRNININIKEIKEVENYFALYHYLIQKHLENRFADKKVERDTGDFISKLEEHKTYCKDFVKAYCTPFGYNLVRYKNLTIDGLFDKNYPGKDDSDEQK

B1: target 2 MT 5'PFS ACG 3'PFS CAU (mixed)
RNA 1: CACCCGUGCAAAAUUGCAGGGGUCUAAAACCUUCUCCAAAUUGUUUCAUCCU
RNA 2: GGGAAUGGAUCCACAUCUACGAAUUCACGAGGAUGAAACAAUUUGGAGAAGCAUAGAUCGGAAGAGCACACGU
B2: target 2 MT 5'PFS GCG 3'PFS AGA (mixed)
RNA 1: CACCCGUGCAAAAUUGCAGGGGUCUAAAACCUUCUCCAAAUUGUUUCAUCCU
RNA 2: GGGAAUGGAUCCACAUCUACGAAUUCGCGAGGAUGAAACAAUUUGGAGAAGAGAAGAUCGGAAGAGCACACGU
B3: target 2 MT 5'PFS GAU 3'PFS AGU (mixed)
RNA 1: CACCCGUGCAAAAUUGCAGGGGUCUAAAACCUUCUCCAAAUUGUUUCAUCCU
RNA 2: GGGAAUGGAUCCACAUCUACGAAUUCGAUAGGAUGAAACAAUUUGGAGAAGAGUAGAUCGGAAGAGCACACGU
B4: target 2 MT 5'PFS CUG 3'PFS ACG (mixed)
RNA 1: CACCCGUGCAAAAUUGCAGGGGUCUAAAACCUUCUCCAAAUUGUUUCAUCCU
RNA 2: GGGAAUGGAUCCACAUCUACGAAUUCCUGAGGAUGAAACAAUUUGGAGAAGACGAGAUCGGAAGAGCACACGU
B5: target 2 MT 5'PFS UCG 3'PFS CAG (mixed)
RNA 1: CACCCGUGCAAAAUUGCAGGGGUCUAAAACCUUCUCCAAAUUGUUUCAUCCU
RNA 2: GGGAAUGGAUCCACAUCUACGAAUUCUCGAGGAUGAAACAAUUUGGAGAAGCAGAGAUCGGAAGAGCACACGU
B6: target 2 MT 5'PFS ACU 3'PFS AAU (mixed)
RNA 1: CACCCGUGCAAAAUUGCAGGGGUCUAAAACCUUCUCCAAAUUGUUUCAUCCU
RNA 2: GGGAAUGGAUCCACAUCUACGAAUUCACUAGGAUGAAACAAUUUGGAGAAGAAUAGAUCGGAAGAGCACACGU
B7: target 2 MT 5'PFS GCG 3'PFS AGG (mixed)
RNA 1: CACCCGUGCAAAAUUGCAGGGGUCUAAAACCUUCUCCAAAUUGUUUCAUCCU
RNA 2: GGGAAUGGAUCCACAUCUACGAAUUCGCGAGGAUGAAACAAUUUGGAGAAGAGGAGAUCGGAAGAGCACACGU
B8: target 2 MT 5'PFS GCG 3'PFS AGU (mixed)
RNA 1: CACCCGUGCAAAAUUGCAGGGGUCUAAAACCUUCUCCAAAUUGUUUCAUCCU
RNA 2: GGGAAUGGAUCCACAUCUACGAAUUCGCGAGGAUGAAACAAUUUGGAGAAGAGUAGAUCGGAAGAGCACACGU
B9: target 2 MT 5'PFS ACU 3'PFS AAA (mixed)
RNA 1: CACCCGUGCAAAAUUGCAGGGGUCUAAAACCUUCUCCAAAUUGUUUCAUCCU
RNA 2: GGGAAUGGAUCCACAUCUACGAAUUCACUAGGAUGAAACAAUUUGGAGAAGAAAAGAUCGGAAGAGCACACGU
B10: target 2 MT 5'PFS CUG 3'PFS ACU (mixed)
RNA 1: CACCCGUGCAAAAUUGCAGGGGUCUAAAACCUUCUCCAAAUUGUUUCAUCCU
RNA 2: GGGAAUGGAUCCACAUCUACGAAUUCCUGAGGAUGAAACAAUUUGGAGAAGACUAGAUCGGAAGAGCACACGU
B11: target 2 MT 5'PFS CGC 3'PFS ACA (mixed)
RNA 1: CACCCGUGCAAAAUUGCAGGGGUCUAAAACCUUCUCCAAAUUGUUUCAUCCU
RNA 2: GGGAAUGGAUCCACAUCUACGAAUUCCGCAGGAUGAAACAAUUUGGAGAAGACAAGAUCGGAAGAGCACACGU
B12: target 2 MT 5'PFS UCG 3'PFS CAA (mixed)
RNA 1: CACCCGUGCAAAAUUGCAGGGGUCUAAAACCUUCUCCAAAUUGUUUCAUCCU
RNA 2: GGGAAUGGAUCCACAUCUACGAAUUCUCGAGGAUGAAACAAUUUGGAGAAGCAAAGAUCGGAAGAGCACACGU
B13: target 2 MT 5'PFS GCC 3'PFS AAU (mixed)
RNA 1: CACCCGUGCAAAAUUGCAGGGGUCUAAAACCUUCUCCAAAUUGUUUCAUCCU
RNA 2: GGGAAUGGAUCCACAUCUACGAAUUCGCCAGGAUGAAACAAUUUGGAGAAGAAUAGAUCGGAAGAGCACACGU
B14: target 2 MT 5'PFS CGC 3'PFS ACC (mixed)
RNA 1: CACCCGUGCAAAAUUGCAGGGGUCUAAAACCUUCUCCAAAUUGUUUCAUCCU
RNA 2: GGGAAUGGAUCCACAUCUACGAAUUCCGCAGGAUGAAACAAUUUGGAGAAGACCAGAUCGGAAGAGCACACGU
B15: target 2 MT 5'PFS UCG 3'PFS CAC (mixed)
RNA 1: CACCCGUGCAAAAUUGCAGGGGUCUAAAACCUUCUCCAAAUUGUUUCAUCCU
RNA 2: GGGAAUGGAUCCACAUCUACGAAUUCUCGAGGAUGAAACAAUUUGGAGAAGCACAGAUCGGAAGAGCACACGU
B16: target 2 MT 5'PFS ACU 3'PFS AAG (mixed)
RNA 1: CACCCGUGCAAAAUUGCAGGGGUCUAAAACCUUCUCCAAAUUGUUUCAUCCU
RNA 2: GGGAAUGGAUCCACAUCUACGAAUUCACUAGGAUGAAACAAUUUGGAGAAGAAGAGAUCGGAAGAGCACACGU
B17: target 2 MT 5'PFS CUG 3'PFS ACC (mixed)
RNA 1: CACCCGUGCAAAAUUGCAGGGGUCUAAAACCUUCUCCAAAUUGUUUCAUCCU
RNA 2: GGGAAUGGAUCCACAUCUACGAAUUCCUGAGGAUGAAACAAUUUGGAGAAGACCAGAUCGGAAGAGCACACGU
B18: target 2 MT 5'PFS CGC 3'PFS ACG (mixed)
RNA 1: CACCCGUGCAAAAUUGCAGGGGUCUAAAACCUUCUCCAAAUUGUUUCAUCCU
RNA 2: GGGAAUGGAUCCACAUCUACGAAUUCCGCAGGAUGAAACAAUUUGGAGAAGACGAGAUCGGAAGAGCACACGU
B19: target 2 MT 5'PFS ACG 3'PFS CAC (mixed)
RNA 1: CACCCGUGCAAAAUUGCAGGGGUCUAAAACCUUCUCCAAAUUGUUUCAUCCU
RNA 2: GGGAAUGGAUCCACAUCUACGAAUUCACGAGGAUGAAACAAUUUGGAGAAGCACAGAUCGGAAGAGCACACGU
B20: target 2 MT 5'PFS CUG 3'PFS ACA (mixed)
RNA 1: CACCCGUGCAAAAUUGCAGGGGUCUAAAACCUUCUCCAAAUUGUUUCAUCCU
RNA 2: GGGAAUGGAUCCACAUCUACGAAUUCCUGAGGAUGAAACAAUUUGGAGAAGACAAGAUCGGAAGAGCACACGU
B21: target 2 MT 5'PFS ACU 3'PFS AAC (mixed)
RNA 1: CACCCGUGCAAAAUUGCAGGGGUCUAAAACCUUCUCCAAAUUGUUUCAUCCU
RNA 2: GGGAAUGGAUCCACAUCUACGAAUUCACUAGGAUGAAACAAUUUGGAGAAGAACAGAUCGGAAGAGCACACGU
B22: target 2 MT 5'PFS CGC 3'PFS ACU (mixed)
RNA 1: CACCCGUGCAAAAUUGCAGGGGUCUAAAACCUUCUCCAAAUUGUUUCAUCCU
RNA 2: GGGAAUGGAUCCACAUCUACGAAUUCCGCAGGAUGAAACAAUUUGGAGAAGACUAGAUCGGAAGAGCACACGU
B23: target 2 MT 5'PFS ACG 3'PFS CAG (mixed)
RNA 1: CACCCGUGCAAAAUUGCAGGGGUCUAAAACCUUCUCCAAAUUGUUUCAUCCU
RNA 2: GGGAAUGGAUCCACAUCUACGAAUUCACGAGGAUGAAACAAUUUGGAGAAGCAGAGAUCGGAAGAGCACACGU
B24: target 2 MT 5'PFS GUC 3'PFS GAC (mixed)
RNA 1: CACCCGUGCAAAAUUGCAGGGGUCUAAAACCUUCUCCAAAUUGUUUCAUCCU
RNA 2: GGGAAUGGAUCCACAUCUACGAAUUCGUCAGGAUGAAACAAUUUGGAGAAGGACAGAUCGGAAGAGCACACGU
B25: target 1 A9U,G13U (mixed)
RNA 1: CACCCGUGCAAAAAUGCAGGGGUCUAAAACUGAGCGGAUAACCUCUCUAUGG
RNA 2: GGGAAUGGAUCCACAUCUACGAAUUCGUACCAUAGAGAUGUUUUCCGCUCACCGAGAUCGGAAGAGCACACGU
B26: target 1 insA 3' of 2,insG 3' of 2 (mixed)
RNA 1: CACCCGUGCAAAAAUGCAGGGGUCUAAAACUGAGCGGAUAACCUCUCUAUGG
RNA 2: GGGAAUGGAUCCACAUCUACGAAUUCGUACCAUAGAGAGGUUAUCCGCUCAGACCGAGAUCGGAAGAGCACACGU
B27: target 1 G13C,A14C (mixed)
RNA 1: CACCCGUGCAAAAAUGCAGGGGUCUAAAACUGAGCGGAUAACCUCUCUAUGG
RNA 2: GGGAAUGGAUCCACAUCUACGAAUUCGUACCAUAGAGCCGUUAUCCGCUCACCGAGAUCGGAAGAGCACACGU
B28: target 1 insG 3' of 16,insU 3' of 12 (mixed)
RNA 1: CACCCGUGCAAAAAUGCAGGGGUCUAAAACUGAGCGGAUAACCUCUCUAUGG
RNA 2: GGGAAUGGAUCCACAUCUACGAAUUCGUACCAUAGAGGAGGUUUAUCCGCUCACCGAGAUCGGAAGAGCACACGU

What follows are binders tested against T1, EsCas13d, nuclease-dead (assay: crRNA (strand 1, pre-loaded); Mg2+; 40 mM Tris-HCl pH 7.5, 150 mM NaCl, 6 mM MgCl2, 1 mM DTT, 0.1% Tween-20, 0.2 mg/ml BSA; 25 C; 10 min per concentration, then washed). Settings: tags: His6-TwinStrep-SUMO cleaved; N-terminal SNAP kept (SNAP-Surface 488); label: 3' end held by stalled T7 RNA polymerase.

**Q.** Which Kd does the source give for B1 here?
**A.** 5.5 ± 0.6 nM

**Q.** Which Kd does the source give for B2 here?
**A.** 7.6 ± 1 nM

**Q.** Which Kd does the source give for B3 here?
**A.** 12.3 ± 2 nM

**Q.** B4 was tested. Which Kd did it give?
**A.** 2.89 ± 0.25 nM

**Q.** Which Kd does the source give for B5 here?
**A.** 18.7 ± 2.6 nM

**Q.** How did the Kd turn out when B6 was run?
**A.** 4.1 ± 0.5 nM

**Q.** For B7, which Kd is on record?
**A.** 16.2 ± 2.8 nM

**Q.** How did the Kd turn out when B8 was run?
**A.** 11.6 ± 2.1 nM

**Q.** With B9 as the binder, how does the Kd read?
**A.** 4.7 ± 1.7 nM

**Q.** With B10 as the binder, how does the Kd read?
**A.** 4.5 ± 0.8 nM

**Q.** For B11, which Kd is on record?
**A.** 11 ± 5 nM

**Q.** For B12, which Kd is on record?
**A.** 10.7 ± 1.9 nM

**Q.** For B13, which Kd is on record?
**A.** 18 ± 5 nM

**Q.** Which Kd does the source give for B14 here?
**A.** 18 ± 4 nM

**Q.** B15 was tested. Which Kd did it give?
**A.** 27 ± 8 nM

**Q.** B16 was tested. Which Kd did it give?
**A.** 3.7 ± 0.5 nM

**Q.** How did the Kd turn out when B17 was run?
**A.** 5.6 ± 1.2 nM

**Q.** B18 was tested. Which Kd did it give?
**A.** 5.2 ± 0.7 nM

**Q.** With B19 as the binder, how does the Kd read?
**A.** 5.7 ± 1.2 nM

**Q.** With B20 as the binder, how does the Kd read?
**A.** 3.9 ± 0.5 nM

**Q.** Which Kd does the source give for B21 here?
**A.** 5.7 ± 0.8 nM

**Q.** How did the Kd turn out when B22 was run?
**A.** 6 ± 0.8 nM

**Q.** Which Kd does the source give for B23 here?
**A.** 7.7 ± 1.4 nM

**Q.** B24 was tested. Which Kd did it give?
**A.** 12.2 ± 2.8 nM

**Q.** B25 was tested. Which Kd did it give?
**A.** 53 ± 8 nM

**Q.** How did the Kd turn out when B26 was run?
**A.** 10.5 ± 1.2 nM

**Q.** How did the Kd turn out when B27 was run?
**A.** 50 ± 9 nM

**Q.** For B28, which Kd is on record?
**A.** 12.3 ± 0.9 nM
